1 molecule from paper doi:10.1101/746693 (bioRxiv, 2019) can be followed below.

In the assay the target is T1, Proteinase Activated Receptor-4 (PAR4)-YFP, wild type (human, UniProt Q96RI0 48-385).
T1 sequence (looked up): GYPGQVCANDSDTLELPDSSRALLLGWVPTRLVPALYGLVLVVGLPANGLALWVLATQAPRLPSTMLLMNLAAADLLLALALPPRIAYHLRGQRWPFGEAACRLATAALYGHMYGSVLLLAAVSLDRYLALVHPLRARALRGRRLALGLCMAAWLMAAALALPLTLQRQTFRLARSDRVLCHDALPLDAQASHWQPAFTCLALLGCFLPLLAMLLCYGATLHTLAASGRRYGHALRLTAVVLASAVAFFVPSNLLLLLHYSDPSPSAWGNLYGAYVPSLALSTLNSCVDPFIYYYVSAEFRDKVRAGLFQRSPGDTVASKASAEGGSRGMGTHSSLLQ
Nature of the assay: FRET or BRET. In general terms: Bioluminescence resonance energy transfer reports proximity on the nanometre scale.

B1: β-arrestin-1-renilla luciferase (natural protein, UniProt P49407 1-418, looked up)
chain: MGDKGTRVFKKASPNGKLTVYLGKRDFVDHIDLVDPVDGVVLVDPEYLKERRVYVTLTCAFRYGREDLDVLGLTFRKDLFVANVQSFPPAPEDKKPLTRLQERLIKKLGEHAYPFTFEIPPNLPCSVTLQPGPEDTGKACGVDYEVKAFCAENLEEKIHKRNSVRLVIRKVQYAPERPGPQPTAETTRQFLMSDKPLHLEASLDKEIYYHGEPISVNVHVTNNTNKTVKKIKISVRQYADICLFNTAQYKCPVAMEEADDTVAPSSTFCKVYTLTPFLANNREKRGLALDGKLKHEDTNLASSTLLREGANREILGIIVSYKVKVKLVVSRGGLLGDLASSDVAVELPFTLMHPKPKEEPPHREVPENETPVDTNLIELDTNDDDIVFEDFARQRLKGMKDDKEEEEDGTGSPQLNNR
In the case of B1, the “EC50 of (N-Me-A)-YPGKF-NH2 for recruitment (BRET)” value turned out to be 6.8 µM, the “EC50 of A-(N-Me-Y)-PGKF-NH2 for recruitment (BRET)” value was 14.2 µM, the “EC50 of AYPG-(Nα-Me-K)-F-NH2 for recruitment (BRET)” value was 12.2 µM and the “EC50 of AYPGK-(N-Me-F)-NH2 for recruitment (BRET)” value worked out at 10.4 µM. Besides, the “EC50 of Ac-AYPGKF-NH2 for recruitment (BRET)” value is 15 µM and the “EC50 of VYPGKF-NH2 for recruitment (BRET)” value turned out to be 33.8 µM.
